{"source": "paper PMC2518714", "molecular_target": "T1, CD9 (wild type) (human (endogenous in PC3)), P21926", "T1 chain": "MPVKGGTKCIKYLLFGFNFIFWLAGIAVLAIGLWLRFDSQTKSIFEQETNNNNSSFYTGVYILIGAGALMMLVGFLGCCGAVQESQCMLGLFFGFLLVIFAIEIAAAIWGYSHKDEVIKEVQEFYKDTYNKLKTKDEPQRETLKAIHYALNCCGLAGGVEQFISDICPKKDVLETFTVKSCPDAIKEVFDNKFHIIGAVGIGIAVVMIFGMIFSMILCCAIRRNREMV", "test": "single-molecule codiffusion", "conditions": "remark: other sources report otherwise", "data": [{"binder": "CD9 (wild type), P21926 1-228 (natural protein, here or on the partner: palmitoylated (sites not given); palmitoylated (sites not given)) MPVKGGTKCIKYLLFGFNFIFWLAGIAVLAIGLWLRFDSQTKSIFEQETNNNNSSFYTGVYILIGAGALMMLVGFLGCCGAVQESQCMLGLFFGFLLVIFAIEIAAAIWGYSHKDEVIKEVQEFYKDTYNKLKTKDEPQRETLKAIHYALNCCGLAGGVEQFISDICPKKDVLETFTVKSCPDAIKEVFDNKFHIIGAVGIGIAVVMIFGMIFSMILCCAIRRNREMV", "values": [{"measurement": "percent of Brownian and mixed trajectories with codiffusing molecules", "value": 15, "unit": "%"}, {"measurement": "percent of possible pairs dynamically colocalized", "value": 5, "unit": "%"}]}]}
